# Test results from publication PMC6344896, “HuR biological function involves RRM3-mediated dimerization and RNA binding by all three RRMs” (Nucleic Acids Research, 2018).
# B1: Trx-RRM3 (HuR RRM3 fused to the C-terminus of E. coli thioredoxin 1 via a GSAM linker) (domain or fragment, human, UniProt Q15717-1 243-326, looked up)
# chain: GWCIFIYNLGQDADEGILWQMFGPFGAVTNVKVIRDFNTNKCKGFGFVTMTNYEEAAMAIASLNGYRLGDKILQVSFKTNKSHK
# notes: Human HuR/ELAVL1 (NP_001410.2), third RNA recognition motif; Chain order: E. coli thioredoxin 1, Gly-Ser-Ala-Met, RRM3; Thioredoxin structure 2TRX was used for molecular replacement; also called RRM3-Trx; Trx-RRM3 fusion protein; source: E. coli BL21(DE3), purified; not shown: Trx (E. coli thioredoxin 1, uncleavable GSAM linker), N-terminal, kept
# Biological target: the molecule itself
# Test: SAXS; concentration series in solution without RNA (Trx-RRM3 1.25–10 mg/ml; untagged full-length HuR WT and W261E, lowest 0.5 mg/ml); molecular weights from the Porod volume
protein,measurement,value
B1,stoichiometry N,2
